Test results from PMC7502788.

What was measured:
Experiment in all cases: BLI
[1] = molecular target: TBTI_13C3x8D3_HC_S101A/LC_Y92A_mIgG1 (mouse)
[2] = molecular target: TBTI_13C3x8D3 LC_G68I_mIgG1 (mouse)
[3] = molecular target: TBTI_13C3x8D3_HC_N31A/LC_Y92A_mIgG1 (mouse)
[4] = molecular target: TBTI_8D3x13C3_mIgG1 (mouse)
[5] = molecular target: TBTI_13C3x8D3 LC_Y92A_mIgG1 (mouse)
[6] = molecular target: TBTI_13C3x8D3 HC_Y52A_mIgG1 (mouse)
[7] = molecular target: TBTI_13C3x8D3_HC_Y52A-S101A/LC_Y49A-Y92A-mIgG1 (mouse)
[8] = molecular target: Anti-mTfRC 8D3 (mouse)
[9] = molecular target: TBTI_13C3x8D3_HC_Y52A/LC_Y92A_mIgG1 (mouse)
[10] = molecular target: TBTI_13C3x8D3 HC_T100A_mIgG1 (mouse)
[11] = molecular target: TBTI_13C3x8D3 HC_S101A_mIgG1 (mouse)
[12] = molecular target: TBTI_13C3x8D3 LC_N93A_mIgG1 (mouse)
[13] = molecular target: TBTI_13C3x8D3 LC_N31A_mIgG1 (mouse)
[14] = molecular target: TBTI_13C3x8D3 HC_Y53A_mIgG1 (mouse)
[15] = molecular target: TBTI_13C3x8D3_mIgG1 (mouse)
[16] = molecular target: TBTI_13C3x8D3 HC_N31A_mIgG1 (mouse)
[17] = molecular target: TBTI_13C3x8D3 LC_Y49A_mIgG1 (mouse)
[18] = molecular target: TBTI_13C3x8D3_HC_Y52A/LC_Y49A_mIgG1 (mouse)

Kd [1]: 6.94 nM
koff [1]: 0.000357 s⁻¹
kon [1]: 51400 M⁻¹ s⁻¹
Kd [2]: 3.84 nM
koff [2]: 0.000105 s⁻¹
kon [2]: 27200 M⁻¹ s⁻¹
koff [3]: 0.000553 s⁻¹
kon [3]: 62100 M⁻¹ s⁻¹
Kd [4]: 0.4 nM
koff [4]: 2.9e-05 s⁻¹
kon [4]: 74400 M⁻¹ s⁻¹
Kd [5]: 6.88 nM
koff [5]: 0.000149 s⁻¹
kon [5]: 21700 M⁻¹ s⁻¹
Kd [6]: 17.9 nM
koff [6]: 0.000521 s⁻¹
kon [6]: 29200 M⁻¹ s⁻¹
Kd [7]: 19.6 nM
koff [7]: 0.00111 s⁻¹
kon [7]: 32600 M⁻¹ s⁻¹
Kd [8]: 0.54 nM
koff [8]: 3.9e-05 s⁻¹
kon [8]: 71300 M⁻¹ s⁻¹
Kd [9]: 29.2 nM
koff [9]: 0.000734 s⁻¹
kon [9]: 25200 M⁻¹ s⁻¹
Kd [10]: 3.83 nM
koff [10]: 0.000233 s⁻¹
kon [10]: 60800 M⁻¹ s⁻¹
Kd [11]: 8.96 nM
koff [11]: 0.000258 s⁻¹
kon [11]: 28800 M⁻¹ s⁻¹
Kd [12]: 4.16 nM
koff [12]: 0.000112 s⁻¹
kon [12]: 27100 M⁻¹ s⁻¹
Kd [13]: 2.18 nM
koff [13]: 5.4e-05 s⁻¹
Kd [14]: 4.25 nM
koff [14]: 0.000124 s⁻¹
kon [14]: 29200 M⁻¹ s⁻¹
Kd [15]: 2.83 nM
koff [15]: 9.9e-05 s⁻¹
kon [15]: 35300 M⁻¹ s⁻¹
Kd [16]: 6.61 nM
koff [16]: 0.000159 s⁻¹
Kd [17]: 4.46 nM
koff [17]: 9.9e-05 s⁻¹
kon [17]: 22100 M⁻¹ s⁻¹
koff [18]: 0.000689 s⁻¹
kon [18]: 793000 M⁻¹ s⁻¹
Substance: mouse transferrin receptor protein (mTfR), Sino Biological 50741-M07H (from UniProt Q62351 89-763)
